B1: FUT8 (parent)
chain: YPSYKVREKIETVKYPTYPEAEK

Variants of: B1
Experiment: protein stability index of a GFP-peptide fusion (GPS, HEK-293T) (PSI 1-6); higher = more stable
Settings: c terminus: native
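Note: lentivirally expressed fusions sorted by FACS into six bins by GFP to DsRed ratio, PSI derived from sequencing read proportions per bin multiplied by bin number.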

Variant | protein stability index
YPKYKVREKIETVKYPTYPEAEK [S3K] | 4.78
YPTYKVREKIETVKYPTYPEAEK [S3T] | 4.19
YPRYKVREKIETVKYPTYPEAEK [S3R] | 3.79
YPWYKVREKIETVKYPTYPEAEK [S3W] | 3.02
YPGYKVREKIETVKYPTYPEAEK [S3G] | 3.92
YPEYKVREKIETVKYPTYPEAEK [S3E] | 4.18
YPFYKVREKIETVKYPTYPEAEK [S3F] | 3.25
YPCYKVREKIETVKYPTYPEAEK [S3C] | 4.08
YPDYKVREKIETVKYPTYPEAEK [S3D] | 4.69
YPNYKVREKIETVKYPTYPEAEK [S3N] | 4.3
YPYYKVREKIETVKYPTYPEAEK [S3Y] | 4.12
YPIYKVREKIETVKYPTYPEAEK [S3I] | 4.44
YPSWKVREKIETVKYPTYPEAEK [Y4W] | 3.66
YPSSKVREKIETVKYPTYPEAEK [Y4S] | 4.59
YPSRKVREKIETVKYPTYPEAEK [Y4R] | 4.29
YPSVKVREKIETVKYPTYPEAEK [Y4V] | 4.52
YPSQKVREKIETVKYPTYPEAEK [Y4Q] | 4.52
YPSDKVREKIETVKYPTYPEAEK [Y4D] | 4.57
YPSEKVREKIETVKYPTYPEAEK [Y4E] | 4
YPSCKVREKIETVKYPTYPEAEK [Y4C] | 4.13
YPSTKVREKIETVKYPTYPEAEK [Y4T] | 4.91
YPSMKVREKIETVKYPTYPEAEK [Y4M] | 4.88
YPSGKVREKIETVKYPTYPEAEK [Y4G] | 5.38
YPSNKVREKIETVKYPTYPEAEK [Y4N] | 4.47

Variant | protein stability index
YPSAKVREKIETVKYPTYPEAEK [Y4A] | 4.86
YPSIKVREKIETVKYPTYPEAEK [Y4I] | 4.16
YPSLKVREKIETVKYPTYPEAEK [Y4L] | 4.68
YPSKKVREKIETVKYPTYPEAEK [Y4K] | 5.03
YPSHKVREKIETVKYPTYPEAEK [Y4H] | 4.93
YPSPKVREKIETVKYPTYPEAEK [Y4P] | 5.02
YPSFKVREKIETVKYPTYPEAEK [Y4F] | 4.64
YPSYKIREKIETVKYPTYPEAEK [V6I] | 3.89
YPSYKAREKIETVKYPTYPEAEK [V6A] | 4.67
YPSYKFREKIETVKYPTYPEAEK [V6F] | 2.83
YPSYKKREKIETVKYPTYPEAEK [V6K] | 4.55
YPSYKEREKIETVKYPTYPEAEK [V6E] | 4.43
YPSYKCREKIETVKYPTYPEAEK [V6C] | 3.91
YPSYKDREKIETVKYPTYPEAEK [V6D] | 4.76
YPSYKHREKIETVKYPTYPEAEK [V6H] | 4.58
YPSYKGREKIETVKYPTYPEAEK [V6G] | 4.18
YPSYRVREKIETVKYPTYPEAEK [K5R] | 4.32
YPSYIVREKIETVKYPTYPEAEK [K5I] | 4.45
YPSYFVREKIETVKYPTYPEAEK [K5F] | 2.91
YPSYNVREKIETVKYPTYPEAEK [K5N] | 4.81
YPSYAVREKIETVKYPTYPEAEK [K5A] | 3.92
YPSYPVREKIETVKYPTYPEAEK [K5P] | 4.61
YPSYMVREKIETVKYPTYPEAEK [K5M] | 4.45
YPSYWVREKIETVKYPTYPEAEK [K5W] | 2.49

Variant | protein stability index
YPSYLVREKIETVKYPTYPEAEK [K5L] | 4.12
YPSYCVREKIETVKYPTYPEAEK [K5C] | 4.2
YPSYYVREKIETVKYPTYPEAEK [K5Y] | 3.62
YPSYVVREKIETVKYPTYPEAEK [K5V] | 4.16
YPSYEVREKIETVKYPTYPEAEK [K5E] | 5.15
YPSYQVREKIETVKYPTYPEAEK [K5Q] | 4.68
YPSYDVREKIETVKYPTYPEAEK [K5D] | 4.72
YPSYGVREKIETVKYPTYPEAEK [K5G] | 4.29
YPSYTVREKIETVKYPTYPEAEK [K5T] | 4.6
YPSYHVREKIETVKYPTYPEAEK [K5H] | 4.34
YPSYSVREKIETVKYPTYPEAEK [K5S] | 4.54
CPSYKVREKIETVKYPTYPEAEK [Y1C] | 4.41
NPSYKVREKIETVKYPTYPEAEK [Y1N] | 5.08
FPSYKVREKIETVKYPTYPEAEK [Y1F] | 4.75
MPSYKVREKIETVKYPTYPEAEK [Y1M] | 4.7
WPSYKVREKIETVKYPTYPEAEK [Y1W] | 4.46
APSYKVREKIETVKYPTYPEAEK [Y1A] | 5.42
TPSYKVREKIETVKYPTYPEAEK [Y1T] | 4.92
RPSYKVREKIETVKYPTYPEAEK [Y1R] | 4.58
EPSYKVREKIETVKYPTYPEAEK [Y1E] | 4.99
QPSYKVREKIETVKYPTYPEAEK [Y1Q] | 4.96
VPSYKVREKIETVKYPTYPEAEK [Y1V] | 4.97
SPSYKVREKIETVKYPTYPEAEK [Y1S] | 4.96
IPSYKVREKIETVKYPTYPEAEK [Y1I] | 5.15

Variant | protein stability index
DPSYKVREKIETVKYPTYPEAEK [Y1D] | 5.3
PPSYKVREKIETVKYPTYPEAEK [Y1P] | 5.38
LPSYKVREKIETVKYPTYPEAEK [Y1L] | 5.16
GPSYKVREKIETVKYPTYPEAEK [Y1G] | 5.08
HPSYKVREKIETVKYPTYPEAEK [Y1H] | 4.98
YGSYKVREKIETVKYPTYPEAEK [P2G] | 4.05
YTSYKVREKIETVKYPTYPEAEK [P2T] | 3.35
YWSYKVREKIETVKYPTYPEAEK [P2W] | 3.32
YHSYKVREKIETVKYPTYPEAEK [P2H] | 3.01
YLSYKVREKIETVKYPTYPEAEK [P2L] | 3.84
YRSYKVREKIETVKYPTYPEAEK [P2R] | 4.76
YISYKVREKIETVKYPTYPEAEK [P2I] | 2.91
YCSYKVREKIETVKYPTYPEAEK [P2C] | 3.11
YESYKVREKIETVKYPTYPEAEK [P2E] | 4.52
YSSYKVREKIETVKYPTYPEAEK [P2S] | 4.78
YDSYKVREKIETVKYPTYPEAEK [P2D] | 4.48
YYSYKVREKIETVKYPTYPEAEK [P2Y] | 3.73
YFSYKVREKIETVKYPTYPEAEK [P2F] | 3.51
YQSYKVREKIETVKYPTYPEAEK [P2Q] | 2.5
YASYKVREKIETVKYPTYPEAEK [P2A] | 3.58
YKSYKVREKIETVKYPTYPEAEK [P2K] | 4.35
YMSYKVREKIETVKYPTYPEAEK [P2M] | 3.58
YVSYKVREKIETVKYPTYPEAEK [P2V] | 2.75
YNSYKVREKIETVKYPTYPEAEK [P2N] | 3.9

— the supplement of paper PMC10567573
